Experimental data taken from patent US20260151521A1.

What was measured:
[1] = target: human PD-L1 (full-length, expressed on cells) (human) (UniProt Q9NZQ7); assay: flow cytometry, dose titration of staining on untreated LOX-IMVI cells
[2] = target: human PD-L1 (full-length, expressed on cells) (human) (UniProt Q9NZQ7); assay: flow cytometry, dose titration of staining on untreated MC38-cOVA/eGFP-mPD-L1-/-hPD-L1Tg cells
[3] = target: human PD-L1 (full-length, expressed on cells) (human) (UniProt Q9NZQ7); assay: flow cytometry, dose titration of staining on LOX-IMVI cells treated overnight with 100 ng/mL hIFNγ
[4] = target: human PD-L1 (full-length, expressed on cells) (human) (UniProt Q9NZQ7); assay: flow cytometry, dose titration on LOX-IMVI and MC38-cOVA/eGFP-mPD-L1-/-hPD-L1Tg cells with or without IFNgamma
[5] = target: human PD-L1 (full-length, expressed on cells) (human) (UniProt Q9NZQ7); assay: flow cytometry, ex vivo LOX-IMVI tumor cells (Tumor 1) ~3 weeks post implantation in nude mice, antibody at 20 ug/mL
[6] = target: human PD-L1 (full-length, expressed on cells) (human) (UniProt Q9NZQ7); assay: flow cytometry, ex vivo LOX-IMVI tumor cells (Tumor 2) ~3 weeks post implantation in nude mice, antibody at 20 ug/mL
[7] = target: human PD-L1 (full-length, expressed on cells) (human) (UniProt Q9NZQ7); assay: flow cytometry, dose titration of staining on MC38-cOVA/eGFP-mPD-L1-/-hPD-L1Tg cells treated overnight with 100 ng/mL mIFNγ
[8] = target: human PD-L1 (full-length, expressed on cells) (human) (UniProt Q9NZQ7); assay: flow cytometry, ex vivo MC38-cOVA/eGFP-mPD-L1-/-hPD-L1Tg tumor cells (Tumor 1) ~3 weeks post implantation in nude mice, antibody at 20 ug/mL
[9] = target: human PD-L1 (full-length, expressed on cells) (human) (UniProt Q9NZQ7); assay: flow cytometry, ex vivo MC38-cOVA/eGFP-mPD-L1-/-hPD-L1Tg tumor cells (Tumor 2) ~3 weeks post implantation in nude mice, antibody at 20 ug/mL
[10] = target: human PD-L1 (full-length, expressed on cells) (human) (UniProt Q9NZQ7); assay: immunoreactivity on MC38/mPD-L1-/-/hPD-L1 cells
[11] = target: human PD-L1 (full-length, expressed on cells) (human) (UniProt Q9NZQ7); assay: immunoreactivity, Study 1: MC38-cOVA/eGFP-mPD-L1-/-hPD-L1Tg cells, cell-bound activity against standards
[12] = target: human PD-L1 (full-length, expressed on cells) (human) (UniProt Q9NZQ7); assay: immunoreactivity, Study 3: MC38-cOVA/eGFP-mPD-L1-/-hPD-L1Tg cells, cell-bound activity against standards
[13] = target: human PD-L1 (full-length, expressed on cells) (human) (UniProt Q9NZQ7); assay: immunoreactivity, Study 3: LOX-IMVI cells (endogenous human PD-L1), cell-bound activity against standards
[14] = target: human PD-L1 (full-length, expressed on cells) (human) (UniProt Q9NZQ7); assay: immunoreactivity, Study 1: 20 ng 89Zr antibody on 15x10^6 MC38-cOVA/eGFP-mPD-L1-/-hPD-L1Tg cells, gamma counter
[15] = target: human PD-L1 (full-length, expressed on cells) (human) (UniProt Q9NZQ7); assay: immunoreactivity, Study 3: 20 ng 89Zr antibody on 15x10^6 MC38-cOVA/eGFP-mPD-L1-/-hPD-L1Tg cells, gamma counter
[16] = target: human PD-L1 (full-length, expressed on cells) (human) (UniProt Q9NZQ7); assay: immunoreactivity, Study 3: 20 ng 89Zr antibody on 30x10^6 LOX-IMVI cells (endogenous human PD-L1), gamma counter

Sequence of UniProt Q9NZQ7 (Q9NZQ7 19-290): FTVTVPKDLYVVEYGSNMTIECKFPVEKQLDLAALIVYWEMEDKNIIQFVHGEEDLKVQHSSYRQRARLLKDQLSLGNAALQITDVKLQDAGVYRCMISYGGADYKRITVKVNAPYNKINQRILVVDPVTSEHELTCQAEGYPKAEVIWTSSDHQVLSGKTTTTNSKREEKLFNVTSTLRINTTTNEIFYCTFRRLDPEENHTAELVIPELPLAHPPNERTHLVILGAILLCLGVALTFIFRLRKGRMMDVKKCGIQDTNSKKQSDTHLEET

| EC50 (read off the curve) [1] | EC50 (read off the curve) [2] | EC50 (read off the curve) [3] | antibody concentration at which median fluorescence intensity reached the plateau [4] | Mean fluorescence intensity [5] | Mean fluorescence intensity [6] | EC50 (read off the curve) [7] | Mean fluorescence intensity [8] | Mean fluorescence intensity [9] | Immunoreactivity [10] | Percent IR (immunoreactivity) [11] | Percent IR (immunoreactivity) [12] | Percent IR (immunoreactivity) [13] | cell pellet activity [14] | cell pellet activity [15] | cell pellet activity [16] | Substance |
| --- | --- | --- | --- | --- | --- | --- | --- | --- | --- | --- | --- | --- | --- | --- | --- | --- |
| 20 nM | 30 nM | 20 nM | 150 nM | 8480 | 12100 | 30 nM | 49600 | 51400 |  |  |  |  |  |  |  | fluorochrome directly conjugated anti-human PD-L1 antibody (eBioscience, clone MIH1) |
|  |  |  |  |  |  |  |  |  | 8.8% | 0.5% | 0.7% | 0.7% | 29.6 | 68 | 65.4 | 89Zr labeled DFO-conjugated isotype control antibody |
